Changes are numbered by the printed parent chain.
B1: 45-2B3-mHvKv-IgG2 (antibody, V domains shown)
VH: QVQLQQSGPELVKPGASVKISCKTSGYAFSTSWMNWVKQRPGQGLEWIGRIYPGDGDTDYNGRFKGKATLTADKSSSTAYLQLSSLTSVDSAVYFCARLDGYYEVFYFDYWGQGTTLTVSS
VL: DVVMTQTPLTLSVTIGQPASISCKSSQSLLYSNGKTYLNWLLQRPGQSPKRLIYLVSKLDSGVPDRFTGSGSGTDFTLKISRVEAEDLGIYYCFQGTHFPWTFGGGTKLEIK
B2: 45-4B9-mHvKv-IgG2 (antibody, V domains shown)
VH: EVQLQQSGPELVKPGASVKMSCKASGYTFTTYVMYWVKQRPGQGLEWIGYINPYNDDIRYNEKFKGKATLTSDRSSSTAYMELSSLTSEDSAVYLCARQGGDYWGQGTILTVSS
VL: DVQITQSPSYLAASPGETITVNCRASKNINKYLAWYQEKPGKTNKLLIYSGSTLQSGIPSRFSGSGSGTDFTLTISSLEPEDFAVYHCQQYNEYPLTFGAGTKLEMK
B3: 45-8E11-mHvKv-IgG2 (antibody, V domains shown)
VH: EVQLQQSGTVLARPGASVKMSCKASGYSFTSNWMHWVKQRPGQGLEWIGVIYPGNSDTSYNQKFKGKAKLTAVTSASTAYMELSSLTNEDSAVYYCTRGITTAPEYWGQGTTLTVSS
VL: NIVMTQSPKSMSMSVGERVTLSCKASENVGIYVSWYQQKPEQSPKLLIYGASNRYTGVPDRFTGSGSATDFTLTISSVQPEDLADYHCGHTYNYPFTFGSGTKLEIK
B4: 45-8F1-mHvKv-IgG2 (antibody, V domains shown)
VH: B3 VH with N32Y, E82D, E105D
VL: B3 VL with Y32H, N53S, R54G, T56N, H90Q, N93S
B5: 61-6A7-mHvKv-IgG2 (antibody, V domains shown)
VH: EVQLQQSGAELVRPGALVKLSCKASGFNIKDYYMHWVKRRPEQGLEWIGWIDPENGNTIYDPKFQDKASITADTSSNTAYLQLSSLTSEDTAVYYCAEGLPWYFDYWGQGTTLTVSS
VL: QIILTQSPALMSASPGEKVTMTCSASSSVSDMNWYQQKPRSSPTPWIYLTSNLSSGVPDRFSGSGSGTSYSLTISSMEAEDAATYYCQQWSGNPLTFGAGTRLELK
B6: 45-8E2-mHvKv-IgG2 (antibody, V domains shown)
VH: EVKLLESGGGLVQPGGSLKLSCAASGFDFSRYWMSWVRQAPGKGLEWIGEIHPDSSAINYTPSLKDKFIISRDNAKNTLYLQMSKVRSEDTALYYCARSYYGRVFDYWGQGTTLTVSS
VL: DIVMTQSPATLSVTPGDRVSLSCRASQSISDYLHWYQQKSHESPRLLIKYASQSISGIPPRFSGSGSGSDFTLSINSVEPEDVGMYYCQDGHSFPPTFGAGTKLELK
B7: 70-6F10-mHvKv-IgG2 (antibody, V domains shown)
VH: QVQLQQSGPELVKPGASVKISCKASGYAFNNSWMNWVKQRPGQGLEWIGRIYPGDGDTDYNGKFKGKATLTADKSSSTAYMQLSSLTSVDSAVYFCARLDGNYYYWYFDVWGAGTTVTVSS
VL: not shown
B8: 30-5F9-mHvKv-IgG4 (antibody, V domains shown)
VH: QVQLKESGPGLVAPSQSLSITCTVSGFSLTTYDISWVRQPPGKGLEWLGVIWTGGGTNYNSSFMSRLSISKDNSKNQVFLKMNSLQVDDTAIYYCERVDYWGQGTTLTVSS
VL: DVVMTQTPLSLPVSLGDQASISCRSSQSLVHSNGNTYLHWYLQKPGQSPKLLIYKVSNRFSGVPDRFSGSGSGTAFTFKISRVEAEDLGVYFCSQNTHVPWTFGGGTKLEIK
B9: 70-3F9-mHvKv-IgG2 (antibody, V domains shown)
VH: QVQLQQPGAELVRPGASVKLSCKASGYTFTSYWINWVKQRPGQGLEWIGNIFPSDSYTNYNQKFKDRAKLTVDKSSSTAYMQLSSPTSEDSAVYYCTRFGSSGYPDYYTMEYWGQGTSVTVSS
VL: DIQMTQSPASLSASVGETVTITCRASGNIDNYLAWYQQKQGKSPQLLVYNAKTLAEGVPSRFSGSGSGTEYSLKINSLQPEDFGSYHCQQYWTIPYTFGGGTKLEIK
B10: 55-8F6-mHvKv-IgG2 (antibody, V domains shown)
VH: QVQLQQPGAELVRPGASVKLSCKASGYIFTSYWINWVKQRPGQGLEWIGNIYPSDSYTNYNQKFKDKATLTVDKSSSTAYMQLSSPTSEDSAVYYCTRFHYGSSPFDNWGQGTTLTVSS
VL: DIQMTQSTSSLSASLGDRVTISCRASQDISHYLNWYQQKPDGTVKLLIYYTSRLHSGVPSRFSGSGSGTDYSLTISNLEQEDFATYFCQQGHTLPRTFGGGTKLEIK
B11: 54-8B11-mHvKv-IgG2 (antibody, V domains shown)
VH: QIQLVQSGPELKKPGETVKISCKASKFTFTNYGMNWVKQAPGKALKWMGWINTYTGEPTYADDFKGRFDFSLETSATTAYLQINNLKNEDTATYFCARREYYPWVFVYWGQGTLVTVSA
VL: ENVLTQSPAIMSASPGEKVTMTCSASSSVSYMHWYQQKSSTSPKLWIYDTSKLASGVPGRFSGSGSGNSYSLTISSMEAEDVATYYCFQGSGYPLTFGGGTKLEIK
B12: 59-5E4-mHvKv-IgG2 (antibody, V domains shown)
VH: QVQLQQPGAELVRPGASVKLSCKASGYTFTTYWINWVRQRPGQGLEWIGNIYPSDSYTNYNQKFKDKASLTVDKSSNTAYMQLSSPTSEDSAVYYCAREAGDGTHYYAIDYWGQGTSVTVSS
VL: NIVMTQSPKSMSMSVGERVTLSCKASENVGTYVSWYQQKPEQSPKLLIYGASNRYPGVPDRFTGSGSATDFTLTISSLQAEDLADYHCGQGYSYLRTFGGGTNLEIK
B13: 56-2A6-mHvKv-IgG2 (antibody, V domains shown)
VH: QIQLVQSGPELKKPGETVKISCKASGYTFTNYGMNWVKQAPGKGFKWMGWINTYTGEPTYADDFKGRFAFSLEISASTAYLQINNLKNEDTATYFCARRDYLGAMDYWGQGTSVTVSS
VL: ENVLTQSPAIMSASPGEKVTMTCRASSSVSSSYLHWYQQKSGASPKLWIYSTSNLASGVPARFSGSGSGTSYSLTISSVEAEDAATYYCQQYSAYLYTFGGGTKLEIK
B14: 45-7G9-mHvKv-IgG2 (antibody, V domains shown)
VH: QVQLQQPGSALVRPGASVKLSCKASGYTFSNYWIHWVKQRHGQGLEWIGNIYPASDYTNYDEKFKNKGTLTVDTSSSTAYMHLSSLTSEDSAVYYCSRGYFGSLDYWGQGTSVTVSA
VL: DILLTQSPAILSVNPGERVSFSCRASQPIGTGIHWYQQRTNGSPRLLIKSASESISGIPSRFSGSGSGTDFTLTINNVESDDVGDYYCQQSYSWPTTFGGGTKLKIN
B15: 69-3C2-mHvKv-IgG2 (antibody, V domains shown)
VH: DVQLVESGGGLVQPGGSRKLSCAASGFSFSSFGMHWMRQAPEKGLEWVAYISSGSSAIYYADTVKGRFTISRDNPKNTLFLQMTSLRSEDTAMYYCARDWVDYWGQGTTLTVSS
VL: DIQMTQSPASLSVSVGETVTITCRASENIYSNLVWYQQKQGKSPQLLVYTATKLTNGVPSRFSGSGSGTQYSLKINSLQSEDFGTYYCQHFWDTPYTFGGGTKLEMK
B16: 1C4-H2K3-IgG4 (antibody, V domains shown)
VH: QVQMVQSGAEVKKPGASVKLSCKASGFTFSSSYINWLRQAPGQSLEWIGWIFAGTGGTYYNQKFTGRVQITRDTSASTAYMELSSLRSEDTAIYYCARHSPRATLFDFWGQGTTLTVSS
VL: EIVLTQSPATLSLSPGERATMSCRASSSVNHMHWYQQKPGFSPRAWIYATSNLASGIPARFSGSGSGTSFTLTISSLEPEDFATYYCQQWSSNPYTFGGGTKLEIK
notes: humanized
B17: 1C4-H1K1-IgG4 (antibody, V domains shown)
VH: B16 VH with S44R, I48M, Q69T
VL: B16 VL with M21L, F41Q, S42A, W46L, T84V
notes: humanized; also called 1C4-IgG4-H1K1
B18: 1C4-H2K1-IgG4 (antibody, V domains shown)
VH: B16 VH
VL: B16 VL with M21L, F41Q, S42A, W46L, T84V
notes: humanized
B19: 1C4-H1K4-IgG4 (antibody, V domains shown)
VH: B16 VH with S44R, I48M, Q69T
VL: B16 VL with L13A, A19V, K38R, F70Y, T71S
notes: humanized
B20: 1C4-H1K2-IgG4 (antibody, V domains shown)
VH: B16 VH with S44R, I48M, Q69T
VL: B16 VL with M21L, F41Q, S42A, W46L
notes: humanized
B21: 1C4-H1K3-IgG4 (antibody, V domains shown)
VH: B16 VH with S44R, I48M, Q69T
VL: B16 VL
notes: humanized
B22: 16-1C4-mHvKv-IgG4 (antibody, V domains shown)
VH: QGQMQQSGAELVKPGASVKLSCKTSGFTFSSSYINWLKQKPGQSLEWIAWIFAGTGGTYYNQKFTGKAQLTVDTSSGTAYMQFSSLTTEDSAIYYCARHSPRATLFDFWGQGTTLTVSS
VL: QIVLSQSPAILSASPGEKVTMTCRASSSVNHMHWYQQRTGFSPKAWIYATSNLASGVPARFSGSGSGTSYSLTISRVEAEDAATYYCQQWSSNPYTFGGGTKLEIK
B23: 29-6A5-mHvKv-IgG2 (antibody, V domains shown)
VH: QVQLQQPGAELVRPGASVKLSCKASGYTFSSYWINWVKQRPGQGLEWIGNIYPSDSYTNYNQKFKDKATLTVDKSSSTAYMQLSSPTSDDSAVYYCTRTWEFYYDSVFDYWGQGTTLTVSS
VL: DIKMTQSPSSMYASLGERVTITCKASQDINSYLSWFQQKPGKSPKTLIYRANRLVDGVPSRFSGSGSGQDYSLTISSLEYEDMGIYYCLQYDELPPTFGGGTKLEIK
B24: 45-7E9-mHvKv-IgG2 (antibody, V domains shown)
VH: QVQLKQSGPGLVQPSQSLSITCTVSGFSLTTYGVHWVRQPPGKGLEWLGVIWSDGNTDYNDAFISRLSITKDNSTSQVFFKMNGLQADDTAIYYCARNSITSVSFDCWGQGTTLTVSS
VL: DIVMTQSQKFMSTSVGDRVSVTCKASQNVGTTVAWYQQRPGQSPKALICSASYRYSGVPDRFTGSGSGTDFTLTISNVQSEDLAEYFCQQYNSYPLTFGSGTKLEIK

biological target: T1, Histidine-tagged human 4-1BB protein (h4-1BB-His) (human, UniProt Q07011 24-186); assay: SPR (Biacore T200), antibody on Protein A chip, h4-1BB-His injected;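 note: dissociation phase followed for 300 s, Kd derived as koff divided by kon from the kinetic fit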
T1 construct: not shown: histidine tag

Point of comparison: B13, Kd 14 nM. Against it:
- B1 — 2.8-fold lower, 4.96 nM
- B2 — 7.9-fold higher, 110 nM
- B3 — 23-fold lower, 0.597 nM
- B4 — 4.5-fold higher, 62.3 nM
- B5 — 39-fold lower, 0.359 nM
- B6 — 11-fold lower, 1.28 nM
- B7 — within 1.5-fold, 10.9 nM
- B8 — within 1.5-fold, 9.91 nM
- B9 — 88-fold lower, 0.16 nM
- B10 — 6.4-fold lower, 2.18 nM
- B11 — within 1.5-fold, 12 nM
- B12 — 45-fold lower, 0.313 nM
- B14 — 1.7-fold higher, 23.1 nM
- B15 — 31-fold lower, 0.45 nM
- B16 — within 1.5-fold, 17.6 nM
- B17 — 1.7-fold higher, 23.1 nM
- B18 — within 1.5-fold, 19.4 nM
- B19 — 1.7-fold higher, 23.9 nM
- B20 — 1.6-fold higher, 22 nM
- B21 — 1.6-fold higher, 21.8 nM
- B22 — within 1.5-fold, 20.5 nM
- B23 — 38-fold lower, 0.371 nM
- B24 — within 1.5-fold, 15.3 nM

Point of comparison: B22, koff 0.000502 s⁻¹. Against it:
- B1 — 3.6-fold lower, 0.000138 s⁻¹
- B2 — 5.9-fold higher, 0.00298 s⁻¹
- B3 — 4-fold lower, 0.000127 s⁻¹
- B4 — 5.8-fold higher, 0.00293 s⁻¹
- B5 — within 1.5-fold, 0.000513 s⁻¹
- B6 — within 1.5-fold, 0.000413 s⁻¹
- B7 — 1.9-fold lower, 0.000263 s⁻¹
- B8 — 4.9-fold higher, 0.00247 s⁻¹
- B9 — 3.2-fold lower, 0.000159 s⁻¹
- B10 — 6.8-fold higher, 0.00341 s⁻¹
- B11 — 10-fold higher, 0.00502 s⁻¹
- B12 — 1.5-fold lower, 0.000331 s⁻¹
- B13 — 2.8-fold higher, 0.00141 s⁻¹
- B14 — 8.2-fold higher, 0.0041 s⁻¹
- B15 — within 1.5-fold, 0.000521 s⁻¹
- B16 — the same, 0.000502 s⁻¹
- B17 — within 1.5-fold, 0.000616 s⁻¹
- B18 — the same, 0.000502 s⁻¹
- B19 — within 1.5-fold, 0.000614 s⁻¹
- B20 — within 1.5-fold, 0.000605 s⁻¹
- B21 — within 1.5-fold, 0.000623 s⁻¹
- B23 — within 1.5-fold, 0.000715 s⁻¹
- B24 — 18-fold higher, 0.00916 s⁻¹

Point of comparison: B11, kon 417000 M⁻¹ s⁻¹. Against it:
- B1 — 15-fold lower, 27700 M⁻¹ s⁻¹
- B2 — 15-fold lower, 27200 M⁻¹ s⁻¹
- B3 — 1.9-fold lower, 214000 M⁻¹ s⁻¹
- B4 — 8.9-fold lower, 47000 M⁻¹ s⁻¹
- B5 — 3.4-fold higher, 1.43e+06 M⁻¹ s⁻¹
- B6 — within 1.5-fold, 323000 M⁻¹ s⁻¹
- B7 — 17-fold lower, 24100 M⁻¹ s⁻¹
- B8 — 1.7-fold lower, 249000 M⁻¹ s⁻¹
- B9 — 2.4-fold higher, 999000 M⁻¹ s⁻¹
- B10 — 3.8-fold higher, 1.57e+06 M⁻¹ s⁻¹
- B12 — 2.5-fold higher, 1.06e+06 M⁻¹ s⁻¹
- B13 — 4.1-fold lower, 101000 M⁻¹ s⁻¹
- B14 — 2.4-fold lower, 177000 M⁻¹ s⁻¹
- B15 — 2.8-fold higher, 1.16e+06 M⁻¹ s⁻¹
- B16 — 15-fold lower, 28500 M⁻¹ s⁻¹
- B17 — 16-fold lower, 26700 M⁻¹ s⁻¹
- B18 — 16-fold lower, 25900 M⁻¹ s⁻¹
- B19 — 16-fold lower, 25700 M⁻¹ s⁻¹
- B20 — 15-fold lower, 27500 M⁻¹ s⁻¹
- B21 — 15-fold lower, 28500 M⁻¹ s⁻¹
- B22 — 17-fold lower, 24400 M⁻¹ s⁻¹
- B23 — 4.6-fold higher, 1.93e+06 M⁻¹ s⁻¹
- B24 — within 1.5-fold, 600000 M⁻¹ s⁻¹
